Where no end group is shown, it is not given here.

One data set deals with PP1GL complex. The conditions noted are these: previous experiments; cited from earlier work.
The target of a further data set is PP1γ (Homo sapiens, UniProt P36873). Nature of the data set: Blot overlay binding of digoxigenin-labelled PP1γ to GST-GL fusion proteins. The conditions noted are these: fusion proteins on nitrocellulose membranes. As to the method:
(§1) GST-GL fusion proteins were separated on SDS-PAGE and transferred to nitrocellulose membranes. They were probed with digoxigenin-PP1γ. Alternatively they were examined for binding of ^32P-labelled phosphorylase a. Non-specific binding to the membranes was blocked by incubation in 5% (w/v) marvel dried milk powder, 25 mM Tris/HCI pH 7.5, 500 mM NaCl for 16 hours. The samples were then probed for 3 h with ^32P-labelled phosphorylase a (100 nM) in 25 mM Tris/HCl pH 7.5, 250 mM NaCl, 1 mg/ml bovine serum albumin. The membranes were subsequently washed (3×30 min) with 25 mM Tris/HCl pH 7.5 before autoradiography.

The next data set has as its target T1, phosphorylase a (Oryctolagus cuniculus, UniProt P00489).
T1 sequence (P00489 2-843 limits assumed): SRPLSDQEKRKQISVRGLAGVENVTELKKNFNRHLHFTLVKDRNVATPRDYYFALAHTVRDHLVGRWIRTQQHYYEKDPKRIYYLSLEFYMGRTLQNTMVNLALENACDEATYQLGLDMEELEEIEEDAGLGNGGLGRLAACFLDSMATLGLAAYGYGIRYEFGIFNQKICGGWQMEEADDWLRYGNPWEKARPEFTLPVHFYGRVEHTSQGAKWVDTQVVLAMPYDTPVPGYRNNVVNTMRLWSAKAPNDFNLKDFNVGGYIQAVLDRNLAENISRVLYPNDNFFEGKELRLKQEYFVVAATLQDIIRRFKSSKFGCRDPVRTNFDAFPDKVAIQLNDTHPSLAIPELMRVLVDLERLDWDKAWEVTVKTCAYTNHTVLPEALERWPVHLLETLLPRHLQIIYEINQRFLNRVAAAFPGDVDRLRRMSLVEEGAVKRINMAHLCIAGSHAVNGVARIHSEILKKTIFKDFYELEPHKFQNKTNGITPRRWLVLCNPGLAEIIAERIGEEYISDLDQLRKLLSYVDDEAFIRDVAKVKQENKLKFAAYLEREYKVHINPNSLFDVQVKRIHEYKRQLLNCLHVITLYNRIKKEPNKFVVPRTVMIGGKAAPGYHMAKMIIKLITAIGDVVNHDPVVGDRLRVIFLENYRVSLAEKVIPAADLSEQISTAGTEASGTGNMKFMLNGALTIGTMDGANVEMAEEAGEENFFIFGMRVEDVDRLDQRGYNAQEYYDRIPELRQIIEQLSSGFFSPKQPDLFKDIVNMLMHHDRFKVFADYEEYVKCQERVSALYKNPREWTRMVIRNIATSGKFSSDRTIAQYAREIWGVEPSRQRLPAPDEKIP
Nature of the data set: Blot overlay binding of 32P-labelled phosphorylase a to GST-GL fusion proteins. The conditions noted are these: 100 nM 32P-phosphorylase a, fusion proteins on nitrocellulose membranes. The method, then:
as §1

The nature of data set [1]: Co-sedimentation of GST-GL fusion proteins with hepatic glycogen. The data set is classed as binding, rabbit. The method, then: Protein free glycogen was prepared by the following protocol. Glycogen-protein particles were isolated from the livers of New Zealand White rabbits. Protein was then stripped from the glycogen by boiling for 5 min in 1% (w/v) sodium dodecyl sulphate (SDS). The suspension was cooled to room temperature and centrifuged for 60 min at 100,000×g. The 100,000×g pellet was then resuspended in water, and the centrifugation and resuspension procedure repeated a further two times in order to completely remove residual SDS and protein. Any contaminating nucleotides were removed by incubating the glycogen for 15 min with mixed bed resin, AG 501-X8(D). The resin was removed by filtration and the glycogen concentration determined by the phenol/sulphuric acid method.
Protein free glycogen (10 mg/ml) in 50 mM Tris/HCl pH 7.5, 150 mM NaCl, 0.1% (v/v) 2-mercaptoethanol, 0.02% (w/v) Brij-35, 0.1 mg/ml bovine serum albumin was mixed with GST-GL fusion proteins (50 nM). […] The supernatant and pellet fractions were denatured in SDS, subjected to SDS-polyacrylamide gel electrophoresis and transferred to nitrocellulose. […]

Sequence of PP1γ (P36873 whole entry, the tested form may be a part): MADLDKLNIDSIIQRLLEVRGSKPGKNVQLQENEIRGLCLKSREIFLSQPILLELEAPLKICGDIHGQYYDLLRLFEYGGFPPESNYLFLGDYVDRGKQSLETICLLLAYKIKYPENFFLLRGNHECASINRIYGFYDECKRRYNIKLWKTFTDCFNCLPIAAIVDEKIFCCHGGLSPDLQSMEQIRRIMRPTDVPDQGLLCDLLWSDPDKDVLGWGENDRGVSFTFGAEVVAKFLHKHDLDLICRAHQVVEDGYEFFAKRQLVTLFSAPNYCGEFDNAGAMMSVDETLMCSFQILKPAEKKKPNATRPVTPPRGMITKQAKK

Regarding “GM 63-93: peptide comprising residues 63-93 of the skeletal muscle glycogen targeting subunit (RVSFADSFGFNLVSVKEFDCWELPSASTTFD; UniProt Q16821 63-93, looked up, fragment)”, the “disruption of the PP1GL complex” value in the data set with PP1GL complex was “did not abolish binding of GL to PP1”.

In the case of “GST-GL(1-59): GST fused to GL residues 1-59 ({GST}-MAVDIEYSYSSMAPSLRRERFTFKISPKLNKPLRPCIQLGSKDEAGRMVAPTVQEKKVK)”, the “binding of digoxigenin-labelled PP1γ” value with PP1γ is reported as “not”. In the case of “GST-GL(257-284): GST fused to GL residues 257-284 ({GST}-QFGSPRCSFGLFPEWPSYLGYEKLGPYY)”, the “binding of 32P-labelled phosphorylase a” value with phosphorylase a is listed as “found to bind”. Still for that read-out and setting: the entry for “GST-GL(269-284): GST fused to GL residues 269-284, the C-terminal 16 amino acids ({GST}-PEWPSYLGYEKLGPYY)” is “found to bind”.

“M110 1-38: peptide comprising the amino terminal 38 residues of the M110 subunit of the myosin targeting subunit of PP1 (MKMADAKQKRNEQLKRWIGSETDLEPPVVKRQKTKVKF; UniProt O14974 1-38, looked up, fragment)”: the “disruption of the PP1GL complex” value in the data set with PP1GL complex is listed as “could disrupt the PP1GL complex”.

B1: GST-GL(1-257): GST fused to GL residues 1-257 (protein)
chain: MAVDIEYSYSSMAPSLRRERFTFKISPKLNKPLRPCIQLGSKDEAGRMVAPTVQEKKVKKRVSFADNQGLALTMVKVFSEFDDPLDIPFNITELLDNIVSLTTAESESFVLDFPQPSADYLDFRNRLQTNHVCLENCVLKEKAIAGTVKVQNLAFEKVVKIRMTFDTWKSFTDFPCQYVKDTYAGSDRDTFSFDISLPEKIQSYERMEFAVCYECNGQSYWDSNKGKNYRITRAELRSTQGMTEPYNGPDFGISFDQ
modifications: left off: a dimerising Fc or GST
For B1, the “binding of 32P-labelled phosphorylase a” value in the data set with phosphorylase a is “not”.

B2: GST-GL(1-216): GST fused to GL residues 1-216 (protein)
chain: MAVDIEYSYSSMAPSLRRERFTFKISPKLNKPLRPCIQLGSKDEAGRMVAPTVQEKKVKKRVSFADNQGLALTMVKVFSEFDDPLDIPFNITELLDNIVSLTTAESESFVLDFPQPSADYLDFRNRLQTNHVCLENCVLKEKAIAGTVKVQNLAFEKVVKIRMTFDTWKSFTDFPCQYVKDTYAGSDRDTFSFDISLPEKIQSYERMEFAVCYECN
modifications: left off: a dimerising Fc or GST
As for B2, in the data set with phosphorylase a, the “binding of 32P-labelled phosphorylase a” value is reported as “not”.

B3: GST-GL(1-271): GST fused to GL residues 1-271 (protein)
chain: MAVDIEYSYSSMAPSLRRERFTFKISPKLNKPLRPCIQLGSKDEAGRMVAPTVQEKKVKKRVSFADNQGLALTMVKVFSEFDDPLDIPFNITELLDNIVSLTTAESESFVLDFPQPSADYLDFRNRLQTNHVCLENCVLKEKAIAGTVKVQNLAFEKVVKIRMTFDTWKSFTDFPCQYVKDTYAGSDRDTFSFDISLPEKIQSYERMEFAVCYECNGQSYWDSNKGKNYRITRAELRSTQGMTEPYNGPDFGISFDQFGSPRCSFGLFPEW
modifications: left off: a dimerising Fc or GST
B3: the “binding of 32P-labelled phosphorylase a” value in the data set with phosphorylase a is reported as “not”.

B4: GST-GL(94-284): GST fused to GL residues 94-284 (protein)
chain: LLDNIVSLTTAESESFVLDFPQPSADYLDFRNRLQTNHVCLENCVLKEKAIAGTVKVQNLAFEKVVKIRMTFDTWKSFTDFPCQYVKDTYAGSDRDTFSFDISLPEKIQSYERMEFAVCYECNGQSYWDSNKGKNYRITRAELRSTQGMTEPYNGPDFGISFDQFGSPRCSFGLFPEWPSYLGYEKLGPYY
modifications: left off: a dimerising Fc or GST
As to B4, the “co-sedimentation with glycogen (binding to glycogen)” value in data set [1] (protein free glycogen 10 mg/ml, fusion protein 50 nM, 100,000×g, immunoblot of supernatant and pellet) is listed as “detected exclusively in the 100,000×g pellet”. Besides, in the data set with PP1γ, the “binding of digoxigenin-labelled PP1γ” value is given as “not”.

B5: GST-GL: glutathione S-transferase fused to the full-length GL coding region (residues 1-284) of rat liver GL (protein)
chain: MAVDIEYSYSSMAPSLRRERFTFKISPKLNKPLRPCIQLGSKDEAGRMVAPTVQEKKVKKRVSFADNQGLALTMVKVFSEFDDPLDIPFNITELLDNIVSLTTAESESFVLDFPQPSADYLDFRNRLQTNHVCLENCVLKEKAIAGTVKVQNLAFEKVVKIRMTFDTWKSFTDFPCQYVKDTYAGSDRDTFSFDISLPEKIQSYERMEFAVCYECNGQSYWDSNKGKNYRITRAELRSTQGMTEPYNGPDFGISFDQFGSPRCSFGLFPEWPSYLGYEKLGPYY
modifications: left off: a dimerising Fc or GST
notes: glutathione S-transferase fused to the full-length GL coding region (residues 1-284) of rat liver GL
For B5, the “aggregation (pelleted in the absence of glycogen)” value in data set [1] (100 000×g for 1 h, absence of glycogen) is on record as “strong tendency to aggregate”. The “binding of 32P-labelled phosphorylase a” value with phosphorylase a is reported as “found to bind”. Besides, the “binding of digoxigenin-labelled PP1γ” value with PP1γ is listed as “binds”.

B6: GST-GL(59-284): GST fused to GL residues 59-284 (protein)
chain: KKRVSFADNQGLALTMVKVFSEFDDPLDIPFNITELLDNIVSLTTAESESFVLDFPQPSADYLDFRNRLQTNHVCLENCVLKEKAIAGTVKVQNLAFEKVVKIRMTFDTWKSFTDFPCQYVKDTYAGSDRDTFSFDISLPEKIQSYERMEFAVCYECNGQSYWDSNKGKNYRITRAELRSTQGMTEPYNGPDFGISFDQFGSPRCSFGLFPEWPSYLGYEKLGPYY
modifications: left off: a dimerising Fc or GST
For the molecule B6, the “binding of digoxigenin-labelled PP1γ” value with PP1γ is “binds”.

B7: GST-GL(216-284): GST fused to GL residues 216-284 (protein)
chain: {GST}-NGQSYWDSNKGKNYRITRAELRSTQGMTEPYNGPDFGISFDQFGSPRCSFGLFPEWPSYLGYEKLGPYY
For B7, the “binding of 32P-labelled phosphorylase a” value with phosphorylase a is recorded as “found to bind”.

B8: GST-GL(170-284): GST fused to GL residues 170-284 (protein)
chain: SFTDFPCQYVKDTYAGSDRDTFSFDISLPEKIQSYERMEFAVCYECNGQSYWDSNKGKNYRITRAELRSTQGMTEPYNGPDFGISFDQFGSPRCSFGLFPEWPSYLGYEKLGPYY
modifications: left off: a dimerising Fc or GST
B8: the “binding of digoxigenin-labelled PP1γ” value with PP1γ was “not”.

B9: GST-GL(134-284): GST fused to GL residues 134-284 (protein)
chain: LENCVLKEKAIAGTVKVQNLAFEKVVKIRMTFDTWKSFTDFPCQYVKDTYAGSDRDTFSFDISLPEKIQSYERMEFAVCYECNGQSYWDSNKGKNYRITRAELRSTQGMTEPYNGPDFGISFDQFGSPRCSFGLFPEWPSYLGYEKLGPYY
modifications: left off: a dimerising Fc or GST
As for B9, in the data set with PP1γ, the “binding of digoxigenin-labelled PP1γ” value is reported as “not”.

B10: GST-GL(1-94): GST fused to GL residues 1-94 (protein)
chain: MAVDIEYSYSSMAPSLRRERFTFKISPKLNKPLRPCIQLGSKDEAGRMVAPTVQEKKVKKRVSFADNQGLALTMVKVFSEFDDPLDIPFNITEL
modifications: left off: a dimerising Fc or GST
B10: the “binding of digoxigenin-labelled PP1γ” value with PP1γ is reported as “binds”.

The record behind these values is US6710026B1, “Protein domains in the hepatic glycogen-targetting subunit of protein phosphatase 1 and methods of making and using the same” (Medical Research Counsel, priority 1998, dated 2004).
